Assay results taken from patent US20140155331A1 (COUNCIL OF SCIENTIFIC AND INDUSTRIAL RESEARCH, published 2014).
Each block holds one binder with its values, some of them ahead of it. Where no end group is shown, it is not given here. [ ]: non-standard residue; d: D form. fluorescein = N-terminal 5(6)-carboxyfluorescein label; Aib = CC(C)(N)C(=O)O; Ahx = NCCCCCC(=O)O

What was measured:
[1] = biological target: T1, S100B; experiment: fluorescence anisotropy, N-terminal fluorescein labeled peptide
T1 chain: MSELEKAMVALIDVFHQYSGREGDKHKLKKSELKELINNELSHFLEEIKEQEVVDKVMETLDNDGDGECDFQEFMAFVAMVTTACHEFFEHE

[2] = biological target: T1, S100B; experiment: fluorescence anisotropy; 5 nM fluorescein labeled peptide titrated with S100B in 50 mM Tris-HCl pH 7.5, 50 mM NaCl, 10 mM CaCl2, 25 C

Kd [1]: ~300 nM
B1: pBM-TRTK (Aib substituted TRTK monomer peptide) (peptide)
peptide: fluorescein-TRTKIDW[Aib]KIL[Aib]GGGCG-NH2
notes: The peptide is derived from TRTK-12 (CapZ residues 265-276) with Aib at N8 and S12; also called pBM-TRK

Kd [2]: 7.7 nM
B2: pBBD-TRTK (branched dimeric Aib substituted TRTK) (peptide)
peptide: TRTKIDW[Aib]KIL[Aib]KAH[Ahx]
chain: Lys-NH2
modifications: also: branched dimer: two identical arms on one branching Lys (chain 2)
notes: This is a branched peptide with two identical arms on one lysine; also called bivalent helically branched peptide
